Results on 72 sequences are retold here after the supplement of paper PMC10567573.

± gives the standard deviation.

This data set is described as follows: protein stability index of a GFP-peptide fusion (GPS, HEK-293T) (PSI 1-6); higher = more stable.
Where [1] appears, read: treatment: DMSO, c terminus: a fixed tail appended.
Setting [2] is: treatment: MLN4924 1 uM, 8 h, c terminus: a fixed tail appended.
Setting [3] is: treatment: DMSO, c terminus: native.
Where [4] appears, read: treatment: MLN4924 1 uM, 8 h, c terminus: native.
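Further: 24-mer peptide tiles fused after GFP, lentivirally expressed, FACS-sorted into six equal bins by GFP/DsRed ratio, decoded by Illumina sequencing, PSI is the read-weighted mean bin number.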

YYTTMQTLTKQDTMLKAMFSGRME [KCTD10]: the protein stability index was 2.4 ± 0.16 under setting [1] and 2.4 ± 0.36 under setting [2].

In the case of AWISKIKGSPDVSASSDEPYARIQ [SMIM2], the protein stability index reads like this: under setting [1], 3.11 ± 0.38; under setting [2], 3.44 ± 0.17.

Consider DRVLNYTSWSQHCPWEPQKQPPWE [SPAG8], for which the protein stability index runs as follows: under setting [1], 2.87 ± 0.2; under setting [2], 2.96 ± 0.15.

As to QELEEEIKELYENFCKHNGSKNVF [ATL3], the protein stability index by setting is: under setting [1], 3.02 ± 0.32; under setting [2], 3.57 ± 0.48.

For the sequence LLSRINKDWLEGTVRGATGIFPLS [NCF4], the protein stability index under setting [1] was determined as 2.17 ± 0.47 and the protein stability index under setting [2] was 2.51 ± 0.74.

As to PGRLTEALCLEVRPTYFEMKNEKL [RNF180], the protein stability index under setting [1] turned out to be 4.9 ± 0.21 and the protein stability index under setting [2] was determined as 4.9 ± 0.15.

As for CEMDWSDKMEAYNIDETCGRHHSQ [TEKT4], the protein stability index came to 4.53 ± 0.15 under setting [1] and 4.56 ± 0.13 under setting [2].

In the case of RAYRFVQGKDWGFKKFIRRDFLLD [SPOPL], the protein stability index reads like this: under setting [1], 2.48 ± 1.1; under setting [2], 2.28 ± 0.29.

In the case of TTPLSPTRLSRLQEKEELRELNDR [LMNB1], the protein stability index was found to be 5.18 ± 0.39 under setting [1] and 5.1 ± 0.18 under setting [2].

As to EEEKLKAEEIRIKGKYNISSEDYR [KCNK9], the protein stability index is, setting by setting: under setting [1], 5.21 ± 0.19; under setting [2], 5.29 ± 0.13.

In the case of KIYDSPCLPEAEAMFAINADGVGD [RAD51], the protein stability index under setting [1] was found to be 4.71 ± 0.19 and the protein stability index under setting [2] was 4.65 ± 0.38.

Turning to SVIEEDLEEFQLALKHYVESASSQ [NECAB1], the protein stability index amounted to 3.78 ± 0.58 under setting [1] and 3.84 ± 0.077 under setting [2].

As for IEKTGGVEAVKNELRRQAPPPPPP [WASL], the protein stability index is, setting by setting: under setting [1], 4.492 ± 0.027; under setting [2], 4.46 ± 0.58.

On to SMDNTPHTPTPFKNALEKYGPLKP [MYBL2], for which the protein stability index runs as follows: under setting [1], 3.48 ± 0.092; under setting [2], 3.7 ± 0.16.

YLNSFLHQRIPQSVRILGSLVAIL [SLC29A1]: the protein stability index is, setting by setting: under setting [1], 2.15 ± 0.25; under setting [2], 2.23 ± 0.21.

TPDIKSHYAFRIFDFDDDGTLNRE [CIB1] returned a protein stability index under setting [1] of 3.55 ± 0.15 and a protein stability index under setting [2] of 3.44 ± 0.21.

CQEYLARNARIVHLVEETRIHVLP [CPXM2]: the protein stability index was 2.2 ± 0.28 under setting [1] and 2.49 ± 0.35 under setting [2].

Turning to YRGAVYADNMEFEQCIKLWLHALH [FEM1B], the protein stability index is, setting by setting: under setting [1], 2.19 ± 0.27; under setting [2], 2.22 ± 0.48.

For FRSGALDLDSCSRDGALLGCSLTA [MYORG], the protein stability index under setting [1] was 2.58 ± 0.12 and the protein stability index under setting [2] amounted to 2.34 ± 0.32.

Turning to DVEDLQRDKARLLREKVEFLRSLR [NFE2L1], the protein stability index was 3.33 ± 0.48 under setting [1] and 3.18 ± 0.34 under setting [2].

Regarding EFAGSSPQSSKSTVVKSLIDNSSE [FAN1], the protein stability index is, setting by setting: under setting [1], 5.08 ± 0.27; under setting [2], 5.28 ± 0.12.

For NILVTSGGTVKLADFGLARIYSYQ [CDK4], the protein stability index runs as follows: under setting [1], 2.45 ± 0.81; under setting [2], 2.13 ± 0.37.

TPEKKAEEERDEEEDKRRKGEEVT [EPB41L3] had a protein stability index under setting [1] of 5.74 ± 0.29 and a protein stability index under setting [2] of 5.75 ± 0.27.

Take SRVGKQSFIITLGCNSVLIQFATP [CARM1]: the protein stability index worked out at 2.83 ± 0.4 under setting [1] and 2.97 ± 0.56 under setting [2].

EEGLADEEKKLRRSQHARKETEFL [STK38L]: the protein stability index worked out at 5.33 ± 0.08 under setting [1] and 5.2 ± 0.39 under setting [2].

For the sequence QNARLAELERKLREVMESAVGNSS [FBXO28], the protein stability index stood at 3.68 ± 0.23 under setting [1] and 3.52 ± 0.34 under setting [2].

In the case of QGMIQLALSGASQPGPSGAPAQRA [RETREG3], the protein stability index by setting is: under setting [1], 4.26 ± 0.1; under setting [2], 4.32 ± 0.22.

Sequence VRSGIVEYLSLVKGGQDVKKKVHL [PRIM1] yielded a protein stability index under setting [1] of 2.43 ± 0.26 and a protein stability index under setting [2] of 2.28 ± 0.44.

CAHCRAHLANHDDLISKSFQGSQG [YPEL3]: the protein stability index was 2.45 ± 0.34 under setting [1] and 2.74 ± 0.24 under setting [2].

Turning to REKTNICYLSFPDSNSGCLGDTQF [DENND6A], the protein stability index is, setting by setting: under setting [1], 2.88 ± 0.063; under setting [2], 2.9 ± 0.25.

Consider PFEPQALGLSPSWRLTGFSGMKG [SEPHS2], for which the protein stability index came to 2.51 ± 0.53 under setting [3] and 2.64 ± 0.25 under setting [4].

With FHRLDEPPHICWDETHFGKMGSYY [POMT2], the protein stability index under setting [1] turned out to be 2.42 ± 0.51 and the protein stability index under setting [2] turned out to be 2.36 ± 0.4.

For AGGGGFGGGSLSGGGGSRSISASS [KRT15], the protein stability index reads like this: under setting [1], 3.89 ± 0.3; under setting [2], 4 ± 0.21.

Sequence THSREKSSQESGEEAGSQENHPQE [CHGB] had a protein stability index under setting [1] of 5.54 ± 0.39 and a protein stability index under setting [2] of 5.6 ± 0.18.

On to HLKRHFMFRNHLCLVFELLSYNLY [DYRK1B], for which the protein stability index is, setting by setting: under setting [1], 3.34 ± 0.23; under setting [2], 3.29 ± 0.88.

For EQSLLSRWNPWSTEVPYATFTEHP [TPRG1], the protein stability index reads like this: under setting [1], 3.13 ± 0.22; under setting [2], 3.06 ± 0.16.

With SRAESAPLPVSADDTPEVLNRALS [CDS2], the protein stability index was 5.36 ± 0.19 under setting [1] and 5.37 ± 0.21 under setting [2].

Turning to VQELVLEDLQDGDVRMGGSFRGAF [NET1], the protein stability index was found to be 3.38 ± 0.18 under setting [1] and 3.47 ± 0.12 under setting [2].

Take CEGPPRGKGFRDRNVTGTPLTGDK [ADAMTSL2]: the protein stability index reads like this: under setting [1], 5.07 ± 0.36; under setting [2], 5.17 ± 0.16.

Turning to MENNHTVAITILQDDHDHKVQELM [MTUS2], the protein stability index is, setting by setting: under setting [1], 4.42 ± 0.26; under setting [2], 4.34 ± 0.098.

As to ISRALLSDVVPEKERPLVIGHFNT [MFSD9], the protein stability index is, setting by setting: under setting [1], 3.04 ± 0.45; under setting [2], 2.99 ± 0.31.

Take MAEAEGVPTTPGPASGSTFRGRRD [RETREG3]: the protein stability index reads like this: under setting [1], 5.12 ± 0.39; under setting [2], 5.22 ± 0.14.

Regarding PPETKHQALSGTPKKGPAPSLSPG [TSPAN10], the protein stability index reads like this: under setting [1], 5.31 ± 0.31; under setting [2], 5.31 ± 0.13.

With SDDDEEEEENIGCEEKAKKNANRP [ACBD3], the protein stability index is, setting by setting: under setting [1], 5.42 ± 0.28; under setting [2], 5.49 ± 0.38.

As for FTSGTGHFTAMVWKNTKKMGVGKA [GLIPR2], the protein stability index reads like this: under setting [1], 2.66 ± 0.29; under setting [2], 2.74 ± 0.2.

For VCDSCYDSIKDEDRTSLATFHEGK [WDFY1], the protein stability index came out at 4.62 ± 0.28 under setting [1] and 4.83 ± 0.26 under setting [2].

For QKELQDVGQSLRIKEQEVCKLQEQ [SASS6], the protein stability index is, setting by setting: under setting [1], 4.88 ± 0.25; under setting [2], 5.03 ± 0.36.

Take SQSSYLSQHRRIHSGEKPFICKEC [ZNF232]: the protein stability index is, setting by setting: under setting [1], 3.36 ± 0.33; under setting [2], 3.67 ± 0.44.

Regarding KENEMMKSHVMDQAINNAINYLGA [IKZF1], the protein stability index by setting is: under setting [1], 3.24 ± 0.089; under setting [2], 2.87 ± 0.3.

Consider PFRGDEGIFEESFIEERRQGLEQF [SNX12], for which the protein stability index runs as follows: under setting [1], 4.518 ± 0.041; under setting [2], 4.42 ± 0.18.

Take DQEIKFFRCLFEAEITQIQSHISD [KRT71]: the protein stability index was found to be 2.25 ± 0.36 under setting [1] and 2.34 ± 0.77 under setting [2].

In the case of RNQVVSSTNGELNVDDPTGAHSNA [CSNK1G1], the protein stability index turned out to be 5.25 ± 0.12 under setting [1] and 5.22 ± 0.18 under setting [2].

For the sequence RGVPLLEWETEVEMDKLRASDIME [CLCN6], the protein stability index by setting is: under setting [1], 4.2 ± 0.043; under setting [2], 4.3 ± 0.13.

WESSAGGSFTVRADHGEPIGRGTK [HSP90AB1] yielded a protein stability index under setting [1] of 4.83 ± 0.28 and a protein stability index under setting [2] of 4.79 ± 0.55.

Take VVEEELFHQQGTPRASNRSCAIM [LMNB1]: the protein stability index worked out at 2.77 ± 0.3 under setting [3] and 3.16 ± 0.4 under setting [4].

On to VENNRRDVEAWFNTQTEELNQQVV [KRT36], for which the protein stability index runs as follows: under setting [1], 4.67 ± 0.27; under setting [2], 4.65 ± 0.14.

KAEGGEEDSLGCLTADTKEVTASQ [IRX6]: the protein stability index is, setting by setting: under setting [1], 5.49 ± 0.22; under setting [2], 5.48 ± 0.24.

For the sequence GGIQEGAVTPAGVVNKYQINGLQA [DHCR7], the protein stability index runs as follows: under setting [1], 3.93 ± 0.27; under setting [2], 4.17 ± 0.22.

As for NCLGIRAFADTHSCRELLRIADKF [KLHL20], the protein stability index is, setting by setting: under setting [1], 2.3 ± 0.36; under setting [2], 2.2 ± 0.18.

GFGSKNTAFCTHVFPETAFIAVTS [TBX5]: the protein stability index was 2.28 ± 0.42 under setting [1] and 2.09 ± 0.3 under setting [2].

As to KCAEVIIPLLSSVNVSDRGGRTAL [ANKRD44], the protein stability index by setting is: under setting [1], 2.38 ± 0.37; under setting [2], 2.37 ± 0.16.

As for LCEEFRNRNQRIVQLIQDTRIHIL [CPN1], the protein stability index is, setting by setting: under setting [1], 2.25 ± 0.13; under setting [2], 2.4 ± 0.26.

As to PGAGLRRPTYTPPSIMPQKHWVYV [ZBTB22], the protein stability index is, setting by setting: under setting [1], 2.26 ± 0.051; under setting [2], 2.04 ± 0.27.

Consider TLDKRWRVRKEAMMGLAQIYKKYA [PDS5B], for which the protein stability index is 2.23 ± 0.21 under setting [1] and 2 ± 0.14 under setting [2].

On to HRHTSHLGHAVLPSNARGPILSRS [SPRY1], for which the protein stability index reads like this: under setting [1], 3.69 ± 0.14; under setting [2], 3.94 ± 0.13.

For TEISFILGQEFDEVTADDRKVKST [FABP4], the protein stability index is, setting by setting: under setting [1], 4.24 ± 0.43; under setting [2], 4.43 ± 0.17.

Take MAHSKTRTNDGKITYPPGVKEISD [PDS5B]: the protein stability index under setting [1] was determined as 4.59 ± 0.17 and the protein stability index under setting [2] was 4.61 ± 0.21.

For RSSVELELERCRQQAGLLVTGEKE [PPEF2], the protein stability index by setting is: under setting [1], 4.74 ± 0.57; under setting [2], 4.86 ± 0.34.

For SGEDPTAAAPVAEVPTAAGALTPT [CLPTM1], the protein stability index reads like this: under setting [1], 5.42 ± 0.16; under setting [2], 5.47 ± 0.36.

With HLSPLVVHRQLSHLYAEPQKSPWC [ESR2], the protein stability index was 2.51 ± 0.36 under setting [1] and 2.79 ± 0.36 under setting [2].

In the case of LEDMGQPPAEEAEQPGALAREFLA [FKBP8], the protein stability index stood at 5.15 ± 0.19 under setting [1] and 5.38 ± 0.2 under setting [2].

For MTLAYDNGINLFDTAEVYAAGKAE [KCNAB2], the protein stability index worked out at 3.54 ± 0.29 under setting [1] and 3.8 ± 0.34 under setting [2].
